This assay concerns the target T1, CD3 epsilon homodimer protein (UniProt P07766 23-126).
T1 construct: also called CD3 (CD3 epsilon)
The assay is described as follows: SPR (Biacore T200), CD3e homodimer on CM4 chip, antibody as analyte; KD ratio vs unaltered GLS3000.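 Further: CD3 epsilon homodimer amine-coupled to the sensor surface, antibodies injected as analyte at 25 °C with HBS-EP+ running buffer.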 In general terms: Surface plasmon resonance follows binding to a sensor surface in real time, without labels.

Numbering of substitutions follows the chain as printed. In names and notes the source's numbering stands.

T1 sequence (P07766 23-126): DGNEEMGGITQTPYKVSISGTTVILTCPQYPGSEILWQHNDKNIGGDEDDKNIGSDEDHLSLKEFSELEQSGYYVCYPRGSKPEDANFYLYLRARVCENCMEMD

B1: CE115HA000/GLS3000 L33I one-arm antibody (antibody, human IgG1, kappa, L234A L235A, N297A, name in Kabat numbering)
heavy: QVQLVESGGGVVQPGRSLRLSCAASGFTFSNAWMHWVRQAPGKGLEWVAQIKAKSNNYATYYAESVKGRFTISRDDSKNSLYLQMNSLKTEDTAVYYCRYVHYGAYYGVDAWGQGTTVTVSSASTKGPSVFPLAPSSKSTSGGTAALGCLVKDYFPEPVTVSWNSGALTSGVHTFPAVLQSSGLYSLSSVVTVPSSSLGTQTYICNVNHKPSNTKVDKKVEPKSCDKTHTCPPCPAPEAAGGPSVFLFPPKPKDTLMISRTPEVTCVVVDVSHEDPEVKFNWYVDGVEVHNAKTKPREEQYASTYRVVSVLTVLHQDWLNGKEYKCKVSNKALPAPIEKTISKAKGQPREPQVYTLPPSRCELTKNQVSLSCAVKGFYPSDIAVEWESNGQPENNYKTTPPVLDSDGSFFLVSKLTVDKSRWQQGNVFSCSVMHEALHNHYTQKSLSLSPDYKDDDDK
chain: EPKSSDKTHTCPPCPAPELLGGPSVFLFPPKPKDTLMISRTPEVTCVVVDVSHEDPEVKFNWYVDGVEVHNAKTKPREEQYNSTYRVVSVLTVLHQDWLNGKEYKCKVSNKALPAPIEKTISKAKGQPREPQVCTLPPSRDELTKNQVSLWCLVKGFYPSDIAVEWESNGQPENNYKTTPPVLDSDGSFFLYSKLTVDKSRWQQGNVFSCSVMHEALHNRYTQKSLSLSP
light: DIVMTQSPLSLPVTPGEPASISCRSSQSLVHSNRNTYIHWYQQKPGQAPRLLIYKVSNRFSGVPDRFSGSGSGTDFTLKISRVEAEDVGVYYCGQGTQVPYTFGQGTKLEIKRTVAAPSVFIFPPSDEQLKSGTASVVCLLNNFYPREAKVQWKVDNALQSGNSQESVTEQDSKDSTYSLSSTLTLSKADYEKHKVYACEVTHQGLSSPVTKSFNRGEC
notes: one-arm IgG1
On to B1, for which the “KD ratio to GLS3000” value was 0.86 ratio.

B2: CE115HA000/GLS3000 N53W one-arm antibody (antibody, human IgG1, kappa, L234A L235A, N297A, name in Kabat numbering)
heavy: B1 heavy
chain: B1 chain
light: B1 light with I38L, N58W
notes: one-arm IgG1
Consider B2, for which the “KD ratio to GLS3000” value was 1.01 ratio.

B3: CE115HA000/GLS3000 Q93E one-arm antibody (antibody, human IgG1, kappa, L234A L235A, N297A, name in Kabat numbering)
heavy: B1 heavy
chain: B1 chain
light: B1 light with I38L, Q98E
notes: one-arm IgG1
In the case of B3, the “KD ratio to GLS3000” value is 1.05 ratio.

B4: CE115HA000/GLS3000 L33M one-arm antibody (antibody, human IgG1, kappa, L234A L235A, N297A, name in Kabat numbering)
heavy: B1 heavy
chain: B1 chain
light: B1 light with I38M
notes: one-arm IgG1
For the molecule B4, the “KD ratio to GLS3000” value was determined as 0.9 ratio.

B5: CE115HA000/GLS3000 P95A one-arm antibody (antibody, human IgG1, kappa, L234A L235A, N297A, name in Kabat numbering)
heavy: B1 heavy
chain: B1 chain
light: B1 light with I38L, P100A
notes: one-arm IgG1
On to B5, for which the “KD ratio to GLS3000” value was 0.87 ratio.

B6: CE115HA000/GLS3000 R54E one-arm antibody (antibody, human IgG1, kappa, L234A L235A, N297A, name in Kabat numbering)
heavy: B1 heavy
chain: B1 chain
light: B1 light with I38L, R59E
notes: one-arm IgG1
As for B6, the “KD ratio to GLS3000” value was 0.84 ratio.

B7: CE115HA000/GLS3000 N53F one-arm antibody (antibody, human IgG1, kappa, L234A L235A, N297A, name in Kabat numbering)
heavy: B1 heavy
chain: B1 chain
light: B1 light with I38L, N58F
notes: one-arm IgG1
With B7, the “KD ratio to GLS3000” value was determined as 0.96 ratio.

B8: CE115HA000/GLS3000 Q93D one-arm antibody (antibody, human IgG1, kappa, L234A L235A, N297A, name in Kabat numbering)
heavy: B1 heavy
chain: B1 chain
light: B1 light with I38L, Q98D
notes: one-arm IgG1
Turning to B8, the “KD ratio to GLS3000” value came out at 0.72 ratio.

B9: CE115HA000/GLS3000 Q90D one-arm antibody (antibody, human IgG1, kappa, L234A L235A, N297A, name in Kabat numbering)
heavy: B1 heavy
chain: B1 chain
light: B1 light with I38L, Q95D
notes: one-arm IgG1
Take B9: the “KD ratio to GLS3000” value is 11.1 ratio.

B10: CE115HA000/GLS3000 N53T one-arm antibody (antibody, human IgG1, kappa, L234A L235A, N297A, name in Kabat numbering)
heavy: B1 heavy
chain: B1 chain
light: B1 light with I38L, N58T
notes: one-arm IgG1
As to B10, the “KD ratio to GLS3000” value is 2.68 ratio.

B11: CE115HA000/GLS3000 L33V one-arm antibody (antibody, human IgG1, kappa, L234A L235A, N297A, name in Kabat numbering)
heavy: B1 heavy
chain: B1 chain
light: B1 light with I38V
notes: one-arm IgG1
For the molecule B11, the “KD ratio to GLS3000” value stood at 1.26 ratio.

B12: CE115HA000/GLS3000 P95G one-arm antibody (antibody, human IgG1, kappa, L234A L235A, N297A, name in Kabat numbering)
heavy: B1 heavy
chain: B1 chain
light: B1 light with I38L, P100G
notes: one-arm IgG1
Regarding B12, the “KD ratio to GLS3000” value worked out at 1.94 ratio.

B13: CE115HA000/GLS3000 N53S one-arm antibody (antibody, human IgG1, kappa, L234A L235A, N297A, name in Kabat numbering)
heavy: B1 heavy
chain: B1 chain
light: B1 light with I38L, N58S
notes: one-arm IgG1
B13: the “KD ratio to GLS3000” value was 0.88 ratio.

B14: CE115HA000/GLS3000 N53Q one-arm antibody (antibody, human IgG1, kappa, L234A L235A, N297A, name in Kabat numbering)
heavy: B1 heavy
chain: B1 chain
light: B1 light with I38L, N58Q
notes: one-arm IgG1
For B14, the “KD ratio to GLS3000” value was 1.28 ratio.

B15: CE115HA000/GLS3000 Q93A one-arm antibody (antibody, human IgG1, kappa, L234A L235A, N297A, name in Kabat numbering)
heavy: B1 heavy
chain: B1 chain
light: B1 light with I38L, Q98A
notes: one-arm IgG1
B15: the “KD ratio to GLS3000” value was determined as 0.65 ratio.

B16: CE115HA000/GLS3000 N53R one-arm antibody (antibody, human IgG1, kappa, L234A L235A, N297A, name in Kabat numbering)
heavy: B1 heavy
chain: B1 chain
light: B1 light with I38L, N58R
notes: one-arm IgG1
For B16, the “KD ratio to GLS3000” value turned out to be 1.56 ratio.

B17: CE115HA000/GLS3000 N53I one-arm antibody (antibody, human IgG1, kappa, L234A L235A, N297A, name in Kabat numbering)
heavy: B1 heavy
chain: B1 chain
light: B1 light with I38L, N58I
notes: one-arm IgG1
With B17, the “KD ratio to GLS3000” value is 2.69 ratio.

B18: CE115HA000/GLS3000 L33P one-arm antibody (antibody, human IgG1, kappa, L234A L235A, N297A, name in Kabat numbering)
heavy: B1 heavy
chain: B1 chain
light: B1 light with I38P
notes: one-arm IgG1
Take B18: the “KD ratio to GLS3000” value was determined as 32.7 ratio.

B19: CE115HA000/GLS3000 N53K one-arm antibody (antibody, human IgG1, kappa, L234A L235A, N297A, name in Kabat numbering)
heavy: B1 heavy
chain: B1 chain
light: B1 light with I38L, N58K
notes: one-arm IgG1
Turning to B19, the “KD ratio to GLS3000” value turned out to be 1.05 ratio.

B20: CE115HA000/GLS3000 N53M one-arm antibody (antibody, human IgG1, kappa, L234A L235A, N297A, name in Kabat numbering)
heavy: B1 heavy
chain: B1 chain
light: B1 light with I38L, N58M
notes: one-arm IgG1
Consider B20, for which the “KD ratio to GLS3000” value came out at 1.21 ratio.

B21: CE115HA000/GLS3000 N53G one-arm antibody (antibody, human IgG1, kappa, L234A L235A, N297A, name in Kabat numbering)
heavy: B1 heavy
chain: B1 chain
light: B1 light with I38L, N58G
notes: one-arm IgG1
B21: the “KD ratio to GLS3000” value is 1.33 ratio.

B22: CE115HA000/GLS3000 Q90A one-arm antibody (antibody, human IgG1, kappa, L234A L235A, N297A, name in Kabat numbering)
heavy: B1 heavy
chain: B1 chain
light: B1 light with I38L, Q95A
notes: one-arm IgG1
For the molecule B22, the “KD ratio to GLS3000” value came out at 0.89 ratio.

B23: CE115HA000/GLS3000 N53L one-arm antibody (antibody, human IgG1, kappa, L234A L235A, N297A, name in Kabat numbering)
heavy: B1 heavy
chain: B1 chain
light: B1 light with I38L, N58L
notes: one-arm IgG1
As to B23, the “KD ratio to GLS3000” value worked out at 1.62 ratio.

B24: CE115HA000/GLS3000 N53Y one-arm antibody (antibody, human IgG1, kappa, L234A L235A, N297A, name in Kabat numbering)
heavy: B1 heavy
chain: B1 chain
light: B1 light with I38L, N58Y
notes: one-arm IgG1
Turning to B24, the “KD ratio to GLS3000” value is 0.99 ratio.

B25: CE115HA000/GLS3000 R54D one-arm antibody (antibody, human IgG1, kappa, L234A L235A, N297A, name in Kabat numbering)
heavy: B1 heavy
chain: B1 chain
light: B1 light with I38L, R59D
notes: one-arm IgG1
Regarding B25, the “KD ratio to GLS3000” value was 1.8 ratio.

B26: CE115HA000/GLS3000 Q90E one-arm antibody (antibody, human IgG1, kappa, L234A L235A, N297A, name in Kabat numbering)
heavy: B1 heavy
chain: B1 chain
light: B1 light with I38L, Q95E
notes: one-arm IgG1
For B26, the “KD ratio to GLS3000” value was 0.91 ratio.

B27: CE115HA000/GLS3000 N53V one-arm antibody (antibody, human IgG1, kappa, L234A L235A, N297A, name in Kabat numbering)
heavy: B1 heavy
chain: B1 chain
light: B1 light with I38L, N58V
notes: one-arm IgG1
Consider B27, for which the “KD ratio to GLS3000” value came out at 2.14 ratio.

B28: CE115HA000/GLS3000 P95E one-arm antibody (antibody, human IgG1, kappa, L234A L235A, N297A, name in Kabat numbering)
heavy: B1 heavy
chain: B1 chain
light: B1 light with I38L, P100E
notes: one-arm IgG1
B28: the “KD ratio to GLS3000” value stood at 1.01 ratio.

B29: CE115HA000/GLS3000 P95D one-arm antibody (antibody, human IgG1, kappa, L234A L235A, N297A, name in Kabat numbering)
heavy: B1 heavy
chain: B1 chain
light: B1 light with I38L, P100D
notes: one-arm IgG1
Consider B29, for which the “KD ratio to GLS3000” value came to 2.37 ratio.

B30: CE115HA000/GLS3000 P95L one-arm antibody (antibody, human IgG1, kappa, L234A L235A, N297A, name in Kabat numbering)
heavy: B1 heavy
chain: B1 chain
light: B1 light with I38L, P100L
notes: one-arm IgG1
On to B30, for which the “KD ratio to GLS3000” value was 11.7 ratio.

B31: CE115HA000/GLS3000 N53P one-arm antibody (antibody, human IgG1, kappa, L234A L235A, N297A, name in Kabat numbering)
heavy: B1 heavy
chain: B1 chain
light: B1 light with I38L, N58P
notes: one-arm IgG1
In the case of B31, the “KD ratio to GLS3000” value was 0.98 ratio.

B32: CE115HA000/GLS3000 N53E one-arm antibody (antibody, human IgG1, kappa, L234A L235A, N297A, name in Kabat numbering)
heavy: B1 heavy
chain: B1 chain
light: B1 light with I38L, N58E
notes: one-arm IgG1
Regarding B32, the “KD ratio to GLS3000” value came to 2.47 ratio.

B33: CE115HA000/GLS3000 N53H one-arm antibody (antibody, human IgG1, kappa, L234A L235A, N297A, name in Kabat numbering)
heavy: B1 heavy
chain: B1 chain
light: B1 light with I38L, N58H
notes: one-arm IgG1
On to B33, for which the “KD ratio to GLS3000” value was determined as 1.31 ratio.
